Experimental data from publication PMC12299175 (Vaccines, 2025).

What was measured:
[1] = biological target: Myc-tagged S fragment of human coronavirus (HCoV)-OC43 (HCoV-OC43 (GenBank L14643.1), UniProt P36334); assay: Western blot; settings: one partner purified
[2] = biological target: T1, Myc-tagged S fragment of MERS-CoV (MERS-CoV, isolate of GenBank KT357812.1, UniProt A0A024E0Q9); assay: Western blot; settings: one partner purified
T1 construct: source: 293FT cells, transiently transfected, in lysate (RIPA buffer)

[3] = biological target: Myc-tagged S fragment of bat coronavirus (BtCoV)-HKU5 (BtCoV-HKU5 (GenBank AGP04943.1), UniProt S4X425); assay: Western blot; settings: one partner purified
[4] = biological target: Myc-tagged S fragment of mouse hepatitis virus (MHV) (Mouse hepatitis virus, ATCC VR-764 …, UniProt P11224); assay: Western blot; settings: one partner purified
Chain of Myc-tagged S fragment of mouse hepatitis virus (MHV) (P11224 whole entry, looked up, the tested form may be a part): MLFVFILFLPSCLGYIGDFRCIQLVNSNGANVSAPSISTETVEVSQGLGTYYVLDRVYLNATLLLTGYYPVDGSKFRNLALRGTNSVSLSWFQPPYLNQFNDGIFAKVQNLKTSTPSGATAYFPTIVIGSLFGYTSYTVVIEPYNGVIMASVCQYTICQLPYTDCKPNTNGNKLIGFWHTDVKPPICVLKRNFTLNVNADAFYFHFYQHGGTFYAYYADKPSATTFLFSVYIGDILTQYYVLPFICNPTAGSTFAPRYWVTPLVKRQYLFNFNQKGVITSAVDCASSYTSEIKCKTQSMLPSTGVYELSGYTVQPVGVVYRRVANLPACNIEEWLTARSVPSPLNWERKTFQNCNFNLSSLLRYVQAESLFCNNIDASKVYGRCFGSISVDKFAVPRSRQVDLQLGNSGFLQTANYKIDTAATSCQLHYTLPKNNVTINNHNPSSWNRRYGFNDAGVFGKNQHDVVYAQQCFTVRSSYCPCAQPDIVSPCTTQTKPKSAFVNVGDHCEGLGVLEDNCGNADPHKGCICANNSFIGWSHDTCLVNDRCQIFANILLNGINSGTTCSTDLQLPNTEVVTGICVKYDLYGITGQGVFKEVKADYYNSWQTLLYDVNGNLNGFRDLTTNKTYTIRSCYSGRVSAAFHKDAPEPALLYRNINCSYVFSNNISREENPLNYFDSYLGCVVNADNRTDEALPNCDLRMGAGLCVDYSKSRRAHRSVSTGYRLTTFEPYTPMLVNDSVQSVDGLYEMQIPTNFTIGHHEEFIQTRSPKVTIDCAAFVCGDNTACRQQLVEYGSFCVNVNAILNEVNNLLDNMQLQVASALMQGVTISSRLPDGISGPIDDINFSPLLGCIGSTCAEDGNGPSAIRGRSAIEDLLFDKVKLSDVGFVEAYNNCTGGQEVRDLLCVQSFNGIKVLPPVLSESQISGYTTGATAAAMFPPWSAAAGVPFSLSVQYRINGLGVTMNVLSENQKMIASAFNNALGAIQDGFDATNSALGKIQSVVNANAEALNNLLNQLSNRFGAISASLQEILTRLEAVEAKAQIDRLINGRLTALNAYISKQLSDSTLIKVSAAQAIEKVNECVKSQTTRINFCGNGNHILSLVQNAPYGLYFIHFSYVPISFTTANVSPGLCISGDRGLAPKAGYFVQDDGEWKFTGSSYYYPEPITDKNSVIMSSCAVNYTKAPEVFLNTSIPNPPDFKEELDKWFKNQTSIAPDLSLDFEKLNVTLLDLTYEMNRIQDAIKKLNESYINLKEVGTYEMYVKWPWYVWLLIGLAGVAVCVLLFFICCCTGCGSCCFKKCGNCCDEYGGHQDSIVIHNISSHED

[5] = biological target: T2, synthetic peptide of stem helix (1141-1161) of SARS-CoV-2 WT S with biotin at C terminus (SARS-CoV-2, UniProt P0DTC2); assay: BLI; […] (Gator Bio); antibody at 1 to 100 nM in 100 mM HEPES, 500 mM NaCl, 0.005% Tween20, 0.1% BSA; […]; settings: both partners purified
T2 construct: source: synthetic peptide

Chain of Myc-tagged S fragment of human coronavirus (HCoV)-OC43 (P36334 whole entry, looked up, the tested form may be a part, one chain of several): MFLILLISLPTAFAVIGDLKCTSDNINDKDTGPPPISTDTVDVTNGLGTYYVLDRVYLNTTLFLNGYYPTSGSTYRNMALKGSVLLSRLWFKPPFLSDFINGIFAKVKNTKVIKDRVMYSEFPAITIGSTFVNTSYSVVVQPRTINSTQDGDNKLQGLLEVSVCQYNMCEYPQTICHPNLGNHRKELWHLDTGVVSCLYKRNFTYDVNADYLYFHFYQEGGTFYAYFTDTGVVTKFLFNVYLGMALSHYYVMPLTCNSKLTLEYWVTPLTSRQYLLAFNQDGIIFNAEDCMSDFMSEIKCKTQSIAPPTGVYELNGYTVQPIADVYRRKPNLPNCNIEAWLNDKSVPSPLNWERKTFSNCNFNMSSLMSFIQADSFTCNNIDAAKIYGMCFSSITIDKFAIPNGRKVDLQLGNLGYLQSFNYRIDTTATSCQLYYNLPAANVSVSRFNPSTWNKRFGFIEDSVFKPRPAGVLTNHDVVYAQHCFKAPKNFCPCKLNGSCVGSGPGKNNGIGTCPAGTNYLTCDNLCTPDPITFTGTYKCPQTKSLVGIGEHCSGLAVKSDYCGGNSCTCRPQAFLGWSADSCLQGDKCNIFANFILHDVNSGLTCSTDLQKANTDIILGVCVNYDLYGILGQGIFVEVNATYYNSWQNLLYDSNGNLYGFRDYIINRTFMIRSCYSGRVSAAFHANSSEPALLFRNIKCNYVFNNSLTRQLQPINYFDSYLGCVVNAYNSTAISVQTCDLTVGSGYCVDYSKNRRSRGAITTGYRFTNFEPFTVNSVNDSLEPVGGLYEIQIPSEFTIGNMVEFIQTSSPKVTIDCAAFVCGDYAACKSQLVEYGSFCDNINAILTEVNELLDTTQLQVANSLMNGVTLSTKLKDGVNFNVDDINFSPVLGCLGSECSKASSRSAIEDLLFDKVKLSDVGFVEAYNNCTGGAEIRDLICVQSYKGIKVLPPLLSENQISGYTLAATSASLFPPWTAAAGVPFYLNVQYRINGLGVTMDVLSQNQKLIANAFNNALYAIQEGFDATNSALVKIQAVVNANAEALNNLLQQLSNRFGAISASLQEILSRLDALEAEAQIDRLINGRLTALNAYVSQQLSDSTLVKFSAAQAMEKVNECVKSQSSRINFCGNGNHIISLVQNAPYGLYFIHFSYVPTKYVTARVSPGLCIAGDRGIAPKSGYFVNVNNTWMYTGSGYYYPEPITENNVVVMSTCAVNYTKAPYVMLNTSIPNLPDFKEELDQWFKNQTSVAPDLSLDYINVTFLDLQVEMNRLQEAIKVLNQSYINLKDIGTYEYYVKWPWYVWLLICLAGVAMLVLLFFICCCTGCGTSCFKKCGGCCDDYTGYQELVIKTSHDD

B1: S2P6 recombinant mAb with human IgG1 constant region (antibody, V domains shown)
VH: EVQLVQSGAEVKKPGASVKVSCKASGYTFTSQYMHWVRQAPGQGLEWIGIINPSGVHTSYAQKFQGRVTLTRDTSTSTLYMELSSLRSEDTAVYYCARGSPKGAFDYWGQGTLVTVSS
VL: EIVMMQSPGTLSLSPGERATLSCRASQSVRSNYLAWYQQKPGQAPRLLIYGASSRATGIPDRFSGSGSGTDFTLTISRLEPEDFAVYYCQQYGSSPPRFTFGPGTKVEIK
notes: also called mAb S2P6
B1: binds [1]; binds [2]; binds [3]. The binding result [4] was “binds” and the Kd [5] was less than 1 pM.
